These results are taken from patent US20150284438A1 (BIOVALENCE SDN BHD, published 2015).

Experiment [1] concerns the target T1, DEN2 cNS2B-NS3pro complex (Dengue virus 2 (DEN2 / DENV-2), UniProt P14340 1394-1440; P14340 1476-1660).
T1 sequence 1: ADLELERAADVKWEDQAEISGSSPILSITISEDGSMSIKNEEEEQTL
T1 sequence 2: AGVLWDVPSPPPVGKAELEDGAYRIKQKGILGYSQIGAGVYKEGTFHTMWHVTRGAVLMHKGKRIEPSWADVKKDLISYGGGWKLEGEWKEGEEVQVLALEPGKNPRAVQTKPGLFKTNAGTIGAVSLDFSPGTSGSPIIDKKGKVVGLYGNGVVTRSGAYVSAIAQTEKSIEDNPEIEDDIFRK

Experiment [2] has as its target T1, DEN2 cNS2B-NS3pro complex. Kind of experiment: cell-based or functional assay.

B1: RetroMAD1 (other)
chain: MGRICRCICGRGICRCICGVPGVGVPGVGGATGSDVNFDLSTATAKTYTKFIEDFRATLPFSHKVYDIPLLYSTISDSRRFILLDLTSYAYETISVAIDVTNVYVVAYRTRDVSYFFKESPPEAYNILFKGTRKITLPYTGNYENLQTAAHKIRENIDLGLPALSSAITTLFYYNAQSAPSALLVLIQTTAEAARFKYIERHVAKYVATNFKPNLAIISLENQWSALSKQIFLAQNQGGKFRNPVDLIKPTGERFQVTNVDSDVVKGNIKLLLNSRASTADENFITTMTLLGESVVEFPWALWKTMLKELGTMALHAGKAALGAAADTISQGTQVPGVGVPGVGKLAAALEHHHHHH
With B1, the Ki (commonly the dissociation constant of the complex between target and ligand, obtained from inhibition or displacement) in experiment [1] is 2490 nM. In experiment [2], the “IC50 of NS2B-NS3 protease inhibition” value was 4.99 µM.
